Results as given in IntAct's records for PubMed 28712572.

B1: Gamma-aminobutyric acid receptor-associated protein (Homo sapiens), O95166 (parent)
chain: MKFVYKEEHPFEKRRSEGEKIRKKYPDRVPVIVEKAPKARIGDLDKKKYLVPSDLTVGQFYFLIRKRIHLRAEDALFFFVNNVIPPTSATMGQLYQEHHEEDFFLYIAYSDESVYGL

Variants of: B1
Details: with pcm1_human PCM1, Q15154
Sequence of pcm1_human PCM1, Q15154 (Q15154 whole entry): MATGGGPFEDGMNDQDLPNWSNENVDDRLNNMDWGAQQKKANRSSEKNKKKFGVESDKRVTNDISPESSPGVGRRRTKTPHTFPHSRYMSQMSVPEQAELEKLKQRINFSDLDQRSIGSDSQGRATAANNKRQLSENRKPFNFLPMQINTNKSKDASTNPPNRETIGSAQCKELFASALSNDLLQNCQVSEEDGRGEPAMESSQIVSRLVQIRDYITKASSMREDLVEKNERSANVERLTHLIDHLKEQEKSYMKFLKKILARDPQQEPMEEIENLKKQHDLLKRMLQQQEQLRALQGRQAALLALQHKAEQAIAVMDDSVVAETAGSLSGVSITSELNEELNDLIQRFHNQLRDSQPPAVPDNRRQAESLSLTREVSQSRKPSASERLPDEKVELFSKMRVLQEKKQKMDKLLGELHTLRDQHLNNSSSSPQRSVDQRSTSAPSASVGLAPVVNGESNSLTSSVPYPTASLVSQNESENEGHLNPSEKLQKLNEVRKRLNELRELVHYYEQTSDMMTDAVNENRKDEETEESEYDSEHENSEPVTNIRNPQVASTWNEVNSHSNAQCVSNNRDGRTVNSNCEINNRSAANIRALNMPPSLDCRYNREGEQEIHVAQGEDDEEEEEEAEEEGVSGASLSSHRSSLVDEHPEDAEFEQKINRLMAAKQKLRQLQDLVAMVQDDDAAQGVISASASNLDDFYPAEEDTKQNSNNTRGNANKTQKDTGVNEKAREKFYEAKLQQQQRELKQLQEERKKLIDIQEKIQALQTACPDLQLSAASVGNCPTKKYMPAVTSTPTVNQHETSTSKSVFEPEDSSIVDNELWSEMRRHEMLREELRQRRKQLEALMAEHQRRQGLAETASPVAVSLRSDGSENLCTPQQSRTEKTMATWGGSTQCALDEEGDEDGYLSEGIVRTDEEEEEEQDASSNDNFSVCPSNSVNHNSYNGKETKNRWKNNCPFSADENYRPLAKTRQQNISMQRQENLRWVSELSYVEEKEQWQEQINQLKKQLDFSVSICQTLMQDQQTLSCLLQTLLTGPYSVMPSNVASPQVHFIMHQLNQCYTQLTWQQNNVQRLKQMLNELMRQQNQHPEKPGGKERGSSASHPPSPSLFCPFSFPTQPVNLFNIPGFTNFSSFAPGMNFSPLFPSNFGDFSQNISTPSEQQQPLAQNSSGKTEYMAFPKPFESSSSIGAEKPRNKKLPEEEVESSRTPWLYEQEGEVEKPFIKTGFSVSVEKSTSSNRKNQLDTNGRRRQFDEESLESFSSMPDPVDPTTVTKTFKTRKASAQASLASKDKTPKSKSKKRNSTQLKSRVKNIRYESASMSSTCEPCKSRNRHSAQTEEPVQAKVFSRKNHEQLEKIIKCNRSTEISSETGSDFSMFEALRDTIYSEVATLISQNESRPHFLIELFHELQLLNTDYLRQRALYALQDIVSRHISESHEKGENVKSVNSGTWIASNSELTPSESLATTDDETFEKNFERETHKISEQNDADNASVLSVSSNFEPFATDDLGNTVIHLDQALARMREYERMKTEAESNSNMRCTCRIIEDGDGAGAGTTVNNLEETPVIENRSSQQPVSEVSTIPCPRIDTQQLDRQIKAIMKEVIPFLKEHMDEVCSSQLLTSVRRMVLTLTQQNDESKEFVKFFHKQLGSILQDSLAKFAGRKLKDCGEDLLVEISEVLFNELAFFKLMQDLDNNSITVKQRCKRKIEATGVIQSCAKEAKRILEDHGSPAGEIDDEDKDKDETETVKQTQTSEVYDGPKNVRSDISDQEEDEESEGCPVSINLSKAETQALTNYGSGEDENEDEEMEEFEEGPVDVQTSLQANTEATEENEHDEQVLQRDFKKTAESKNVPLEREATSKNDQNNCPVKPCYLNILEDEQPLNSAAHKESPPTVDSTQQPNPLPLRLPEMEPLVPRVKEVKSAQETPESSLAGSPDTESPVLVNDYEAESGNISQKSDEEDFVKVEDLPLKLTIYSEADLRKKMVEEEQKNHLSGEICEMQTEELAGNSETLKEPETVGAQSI
With G116A the “effect of a mutation on the interaction” value was “with no effect”.
